The source of these data is the RNAGym collection of RNA variant scans (doi:10.1073/pnas.2313332121).

Variants at the floor of the assay were thinned out.

B1: TPR 5TU (parent)
chain: GGAUCUUCUCGAUCUAACAAAAAAGACAAAUCUGCCACAAAGCUUGAGAGCAUCUUCGGAUGCAGAGGCGGCAGCCUUCGGUGGCGCGAUAGCGCCAACGUUCUCAACUAUGACACGCAAAACGCGUGCUCCGUUGAAUGGAGUUUAUCAUG

Variants of B1 are the subject of the data set. The experiment in a line: polymerase ribozyme fitness, log enrichment relative to wild type (log ratio); higher = more active; in vitro selection for triplet polymerase activity. An outline of the steps: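 Genotype fitness is the logarithm of its enrichment divided by wild-type enrichment, using inverse-variance-weighted averages of replicates. That logarithm is base 2. Enrichment was measured by Illumina sequencing of input and output libraries from one triplicate in vitro selection round, with frozen incubation at −7 °C, on PCR-built, transcribed mutant libraries of each subunit of a heterodimeric triplet polymerase ribozyme, retaining genotypes with ≥10 input reads and ≥1 read per output.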
Regarding C99G A137C A142G, the “polymerase ribozyme fitness (log ratio)” value was -3.71.
To C5A U61A U102G belongs at most -4.2; to U55A C69U G94C, -3.36; to C76U A91U G92A, -4.02.
To U45G G84U belongs -1.97; to C51U G59A C85G A137U, at most -4.2.
To A41U U55A A142G belongs -2.45; to A12U A16U C51A G94A U109C A113G C116A U144A, at most -4.2; to A37G C95A U127G, -4.15.
Regarding A28G G50C G81C C95G C96U A98C A113U G143U, the “polymerase ribozyme fitness (log ratio)” value was at most -4.2.
For the variant A24C C85A G143C U146A, the “polymerase ribozyme fitness (log ratio)” value was at most -4.2.
To G50U U53G C69G G94A belongs at most -4.2; to A52G G84A G136A, -0.512.
To U55G G84U A106G belongs -1.26.
Consider G59C C93U C116U U135G, for which the “polymerase ribozyme fitness (log ratio)” value was -3.78.
To C72U A122G belongs -0.726; to A23C G88U U144G, at most -4.2; to A30U U56A G62A G126A, -3.5.
With C14A C76A A89C U90G C95U A107U, the “polymerase ribozyme fitness (log ratio)” value is at most -4.2.
To A19C C35U C95U belongs 0.438.
To C129A U148G belongs -4.11; to C27G A147C, -4.05; to A37U C85G C125U G141A, at most -4.2.
Next, C5G U13C C18U G46U C108U A122G: at most -4.2; G50A U77A A106U A113G A121U C131U: at most -4.2; C87U C103U: -0.658.
On to U13A G34U A49C G140A A142U, for which the “polymerase ribozyme fitness (log ratio)” value was at most -4.2.
To G42C G80C C93A U104A C108G U145A U146C belongs at most -4.2; to A29G C87A A110C G141U, at most -4.2; to A3C C63G C118U, -0.545.
Regarding A30G G86C A147C, the “polymerase ribozyme fitness (log ratio)” value was at most -4.2.
Consider U9C A23U A24G C38G A89G A91U, for which the “polymerase ribozyme fitness (log ratio)” value was at most -4.2.
Next, G84A A98C C105G U148C: -3.35; C51G C85U: -1.91.
To A22C C43U C51U C76A C93A C125G belongs at most -4.2.
Next, A40U C63U G70C: -2.97; U45A G46C U56A G84U G88U U90G C99A: at most -4.2.
On to U9G A29U U53G U55G C93A A137C, for which the “polymerase ribozyme fitness (log ratio)” value was at most -4.2.
Next, A30U U45G C93U C103G C118G: at most -4.2.
Next, U53A G83C G94U A97G U101G U102G C116A G140U: at most -4.2; A17G G50U A66G G92C C95U G141A: at most -4.2; U56A A60U C93U G141U: -3.71.
Take U45C C57G G59U A66U G94A: the “polymerase ribozyme fitness (log ratio)” value is at most -4.2.
Next, A16U A64U A66U G94A C108U A150G: at most -4.2.
Next, C18U G84A U102A C123G: -2.76; A49C G68C G81C C93A G126A: at most -4.2.
Next, A12G A17G A19G U53A U55A G81U G84U G117U: -4.04; C93A C95G: at most -4.2; A16G A22U G94A: -0.896.
Take U90G C96A C131G: the “polymerase ribozyme fitness (log ratio)” value is at most -4.2.
To C72U A147U belongs 0.651; to G59A G86U A119U G140U, -3.26.
Next, A22U G86U A120U: -1.56; A17U A19U C93G U111G: at most -4.2; G50A G58C C76U C85G G141U: -4.1.
Regarding G92A G136C, the “polymerase ribozyme fitness (log ratio)” value is -3.83.
To A16U U56A G62A U82G C85U A142G belongs -4.16; to U82G C96A, 0.287.
Next, G81A G152U: -3.09.
Turning to A122C G126A, the “polymerase ribozyme fitness (log ratio)” value was -0.186.
As to A28U C99A, the “polymerase ribozyme fitness (log ratio)” value is -4.15.
Next, G81C C85G C95G: -3.07; C95U A98G: -1.9; G25U C54A G80A: -4.05.
Regarding C10G A16U A49C C51G A52U U56A C103G U146A, the “polymerase ribozyme fitness (log ratio)” value was at most -4.2.
With A115G G141A, the “polymerase ribozyme fitness (log ratio)” value was -0.426.
For A17U A24C A26G C57U G86A, the “polymerase ribozyme fitness (log ratio)” value is at most -4.2.
To A12U C35A C79U C96A A110G C118U C125A belongs at most -4.2.
Next, U77G U78C C85U: at most -4.2.
Next, G117A U144C: -2.9.
For C85G G86A, the “polymerase ribozyme fitness (log ratio)” value was -3.83.
In the case of A39G G94C, the “polymerase ribozyme fitness (log ratio)” value is -2.32.
As for A20G U53A U56A G58A C69U C93U, the “polymerase ribozyme fitness (log ratio)” value is -3.35.
Next, G68C: -3.92.
To A91U G92U C132A belongs at most -4.2; to C5G A24G A26G A113G C116G, at most -4.2.
Regarding C18U C85G, the “polymerase ribozyme fitness (log ratio)” value was -2.3.
For the variant C27A A37U G42C A106C C116G A121G G128A U145G, the “polymerase ribozyme fitness (log ratio)” value was at most -4.2.
For A3G C8U G25C U45G U55G G81C C95U C114U G117U A120G A122G, the “polymerase ribozyme fitness (log ratio)” value was at most -4.2.
To C8U U9G G70A C76A C87G A89C belongs at most -4.2.
Next, A22U A39U C57U G59A U101G U148C A150C: at most -4.2; A73G G88A A107G: at most -4.2; A89U A142C U146C A150U: -3.99.
To A3U C32G A49U belongs at most -4.2.
